Experimental data from paper PMC3045587.

T1: hTra2-β RRM (Homo sapiens, UniProt P62995 110-201)
T1 sequence: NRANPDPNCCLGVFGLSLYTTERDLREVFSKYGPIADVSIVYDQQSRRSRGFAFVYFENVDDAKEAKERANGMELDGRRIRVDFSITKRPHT


Columns and labels:
[1] = target: T1, hTra2-β RRM; assay: ITC
[2] = target: T1, hTra2-β RRM; assay: ITC; remark: listed apart in the source
[3] = target: T1, hTra2-β RRM; assay: NMR titration

Binder | Kd [1] [µM] | Kd [2] [µM] | Kd [3] [µM]
GACUUCAACAAGUC (structured_RNA) [14-mer CAA stem-loop RNA] | 3.48 | – | –
GAAGAA (ssRNA) [(GAA)2, GAAGAA] | 1.5 | – | –
UCAAU (ssRNA) | – | 47.8 | ~40
